Where no end group is shown, it is not given here.
Experiments:
[1] = biological target: T1, C113T109N biotin labeled HCV core peptide (hepatitis C virus, also: biotin labeled, position not given here); experiment: capture EIA; Ab 1.953 ng/mL; bt-peptide 500 ng/mL
T1 construct: also called C113T110N
T1 peptide: RGSRPSWGPND

[2] = biological target: T2, Mut6T110S biotin labeled HCV core peptide (hepatitis C virus, biotin labeled (position not given)); experiment: capture EIA; Ab 1.953 ng/mL; bt-peptide 500 ng/mL
[3] = biological target: T3, 92-133 biotin labeled HCV core peptide (hepatitis C virus, UniProt Q9WMX2 92-133, chain 1: biotin label (bt-pep). Its position and any spacer are not visible in the passages shown.); experiment: capture EIA; Ab 1.953 ng/mL; bt-peptide 500 ng/mL
T3 construct: Only the label 92-133 is printed
T3 peptide: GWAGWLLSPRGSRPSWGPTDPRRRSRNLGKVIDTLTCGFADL
Protocol: (§1) Assay wells were coated with sheep anti-mouse IgG Fc specific antibody and incubated overnight. The coating solution was then removed; the wells blocked using BSA/tween in PBS and then washed with dH2O. […] Next, biotin labeled peptides (diluted to 500 ng/mL in block) were added, the plates incubated for 10 minutes while shaking at 700 rpm and then washed. Peroxidase conjugated streptavidin (diluted to 200 ng/mL in block) was then added to all assay wells, incubated for 20 minutes while shaking at 700 rpm and then washed. Finally, color was developed using OPD and signal quenched using 1N H₂SO₄. Signal was read at 492 nm.

[4] = biological target: T4, Mut1T110N biotin labeled HCV core peptide (hepatitis C virus, biotin labeled (position not given)); experiment: capture EIA; Ab 1.953 ng/mL; bt-peptide 500 ng/mL
T4 peptide: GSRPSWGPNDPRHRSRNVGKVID

[5] = biological target: T5, WT1STHV biotin labeled HCV core peptide (hepatitis C virus, biotin labeled (position not given)); experiment: capture EIA; Ab 1.953 ng/mL; bt-peptide 500 ng/mL
T5 peptide: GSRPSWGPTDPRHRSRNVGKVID

[6] = biological target: T6, C113WT biotin labeled HCV core peptide (hepatitis C virus, also: biotin labeled, position not given here); experiment: capture EIA; Ab 1.953 ng/mL; bt-peptide 500 ng/mL
T6 peptide: RGSRPSWGPTD

[7] = biological target: T1, C113T109N biotin labeled HCV core …; experiment: capture EIA; Ab 7.813 ng/mL; bt-peptide 500 ng/mL
Protocol: as §1

[8] = biological target: T2, Mut6T110S biotin labeled HCV core …; experiment: capture EIA; Ab 7.813 ng/mL; bt-peptide 500 ng/mL
Protocol: as §1

[9] = biological target: T3, 92-133 biotin labeled HCV core peptide; experiment: capture EIA; Ab 7.813 ng/mL; bt-peptide 500 ng/mL
Protocol: as §1

[10] = biological target: T4, Mut1T110N biotin labeled HCV core …; experiment: capture EIA; Ab 7.813 ng/mL; bt-peptide 500 ng/mL
Protocol: as §1

[11] = biological target: T5, WT1STHV biotin labeled HCV core peptide; experiment: capture EIA; Ab 7.813 ng/mL; bt-peptide 500 ng/mL
Protocol: as §1

[12] = biological target: T6, C113WT biotin labeled HCV core peptide; experiment: capture EIA; Ab 7.813 ng/mL; bt-peptide 500 ng/mL
Protocol: as §1

[13] = biological target: T1, C113T109N biotin labeled HCV core …; experiment: capture EIA; Ab 500 ng/mL; bt-peptide 500 ng/mL
Protocol: as §1

[14] = biological target: T2, Mut6T110S biotin labeled HCV core …; experiment: capture EIA; Ab 500 ng/mL; bt-peptide 500 ng/mL
Protocol: as §1

[15] = biological target: T3, 92-133 biotin labeled HCV core peptide; experiment: capture EIA; Ab 500 ng/mL; bt-peptide 500 ng/mL
Protocol: as §1

[16] = biological target: T4, Mut1T110N biotin labeled HCV core …; experiment: capture EIA; Ab 500 ng/mL; bt-peptide 500 ng/mL
Protocol: as §1

[17] = biological target: T5, WT1STHV biotin labeled HCV core peptide; experiment: capture EIA; Ab 500 ng/mL; bt-peptide 500 ng/mL
Protocol: as §1

[18] = biological target: T1, C113T109N biotin labeled HCV core …; experiment: capture EIA; Ab 250 ng/mL; bt-peptide 500 ng/mL
Protocol: as §1

[19] = biological target: T2, Mut6T110S biotin labeled HCV core …; experiment: capture EIA; Ab 250 ng/mL; bt-peptide 500 ng/mL
Protocol: as §1

[20] = biological target: T3, 92-133 biotin labeled HCV core peptide; experiment: capture EIA; Ab 250 ng/mL; bt-peptide 500 ng/mL
Protocol: as §1

[21] = biological target: T4, Mut1T110N biotin labeled HCV core …; experiment: capture EIA; Ab 250 ng/mL; bt-peptide 500 ng/mL
Protocol: as §1

[22] = biological target: T5, WT1STHV biotin labeled HCV core peptide; experiment: capture EIA; Ab 250 ng/mL; bt-peptide 500 ng/mL
Protocol: as §1

[23] = biological target: T6, C113WT biotin labeled HCV core peptide; experiment: capture EIA; Ab 250 ng/mL; bt-peptide 500 ng/mL
Protocol: as §1

[24] = biological target: T2, Mut6T110S biotin labeled HCV core …; experiment: capture EIA; Ab 15.6 ng/mL; bt-peptide 500 ng/mL (summary of Table 7)
Protocol: as §1

[25] = biological target: T3, 92-133 biotin labeled HCV core peptide; experiment: as above
Protocol: as §1

[26] = biological target: T6, C113WT biotin labeled HCV core peptide; experiment: as above
Protocol: as §1

B1: Neo4 mouse monoclonal antibody (antibody, V domains shown)
VH: QIQLKESGPAVIKPSQSLSLTCIVSGFSITSSVYCWQWIRQPPGKGLEWMGRICYDGSVDYSPSITSRGTISRDTSLNKVFFQLSSVTNEDTAMYYCSRENHIDYYDTTYPSFDVWGAGTTVTVSS
VL: DIVLTQSPASLIVSLGQRATISCRASKSVNEYGYTYMHWYQQKPGLPPKLLIYLASNLDSGVPARFSGSGSGTDFTLNIHPVEEEDAATYYCQHSRELPYTFGGGTKLEIKR
notes: Mouse hybridoma antibody, isotype IgG1, purified with Protein G; also called HCV Neo4
signal at 492 nm [1]: 0.0853 A492 | signal at 492 nm [2]: 0.0717 A492 | signal at 492 nm [3]: 0.129 A492 | signal at 492 nm [4]: 0.0728 A492 | signal at 492 nm [5]: 0.409 A492 | signal at 492 nm [6]: 0.0765 A492 | signal at 492 nm [7]: 0.0751 A492 | signal at 492 nm [8]: 0.132 A492 | signal at 492 nm [9]: 0.45 A492 | signal at 492 nm [10]: 0.0729 A492 | signal at 492 nm [11]: 1.04 A492 | signal at 492 nm [12]: 0.0731 A492 | signal at 492 nm [13]: 0.0803 A492 | signal at 492 nm [14]: 1.17 A492 | signal at 492 nm [15]: 1.48 A492 | signal at 492 nm [16]: 0.065 A492 | signal at 492 nm [17]: 1.91 A492 | signal at 492 nm [18]: 0.111 A492 | signal at 492 nm [19]: 1.15 A492 | signal at 492 nm [20]: 1.4 A492 | signal at 492 nm [21]: 0.089 A492 | signal at 492 nm [22]: 1.99 A492 | signal at 492 nm [23]: 0.0607 A492 | signal at 492 nm [24]: 0.25 A492 | signal at 492 nm [25]: 0.806 A492 | signal at 492 nm [26]: 0.0697 A492

— US20190170753A1 (ICAHN SCHOOL OF MEDICINE AT MOUNT SINAI, published 2019)
